Experimental data published in patent US20100015637A1 (AbbVie / Abbott, published 2010).

Tests used:
[1] = molecular target: CHO human PlGF-1 fragment (comprising amino acids 17-131; ATCC PTA-8540) (human) (UniProt P49763); assay: … sandwich, capture MAb04, detection pAb264; antigen 1500 pg/mL
[2] = molecular target: recombinant human PlGF-1 (comprising amino acids 1-131) expressed in E. coli (R&D Systems) (human) (UniProt P49763); assay: as above
[3] = molecular target: CHO human PlGF-1 comprising amino acids 1-137 (human PlGF-1-His (1-131), CHO 6305) (human) (UniProt P49763); assay: as above
[4] = molecular target: human PlGF-1 fragment (comprising amino acids 17-131) produced in human embryonic kidney cells (human) (UniProt P49763); assay: as above
[5] = molecular target: human PlGF-1 comprising amino acids 1-137 produced in human embryonic kidney cells (human) (UniProt P49763); assay: as above
[6] = molecular target: CHO human PlGF-1 fragment (comprising amino acids 17-131; ATCC PTA-8540) (human) (UniProt P49763); assay: … sandwich, capture MAb04, detection pAb264; antigen 60 pg/mL
[7] = molecular target: recombinant human PlGF-1 (comprising amino acids 1-131) expressed in E. coli (R&D Systems) (human) (UniProt P49763); assay: as above
[8] = molecular target: CHO human PlGF-1 comprising amino acids 1-137 (human PlGF-1-His (1-131), CHO 6305) (human) (UniProt P49763); assay: as above
[9] = molecular target: human PlGF-1 fragment (comprising amino acids 17-131) produced in human embryonic kidney cells (human) (UniProt P49763); assay: as above
[10] = molecular target: human PlGF-1 comprising amino acids 1-137 produced in human embryonic kidney cells (human) (UniProt P49763); assay: as above
[11] = molecular target: CHO human PlGF-1 fragment (comprising amino acids 17-131; ATCC PTA-8540) (human) (UniProt P49763); assay: … sandwich, capture MAb04, detection pAb264; antigen 0 pg/mL (blank)
[12] = molecular target: recombinant human PlGF-1 (comprising amino acids 1-131) expressed in E. coli (R&D Systems) (human) (UniProt P49763); assay: as above
[13] = molecular target: CHO human PlGF-1 comprising amino acids 1-137 (human PlGF-1-His (1-131), CHO 6305) (human) (UniProt P49763); assay: as above
[14] = molecular target: human PlGF-1 fragment (comprising amino acids 17-131) produced in human embryonic kidney cells (human) (UniProt P49763); assay: as above
[15] = molecular target: human PlGF-1 comprising amino acids 1-137 produced in human embryonic kidney cells (human) (UniProt P49763); assay: as above
[16] = molecular target: CHO human PlGF-1 fragment (comprising amino acids 17-131; ATCC PTA-8540) (human) (UniProt P49763); assay: … sandwich, capture MAb04, detection pAb264; antigen 15 pg/mL
[17] = molecular target: recombinant human PlGF-1 (comprising amino acids 1-131) expressed in E. coli (R&D Systems) (human) (UniProt P49763); assay: as above
[18] = molecular target: CHO human PlGF-1 comprising amino acids 1-137 (human PlGF-1-His (1-131), CHO 6305) (human) (UniProt P49763); assay: as above
[19] = molecular target: human PlGF-1 fragment (comprising amino acids 17-131) produced in human embryonic kidney cells (human) (UniProt P49763); assay: as above
[20] = molecular target: human PlGF-1 comprising amino acids 1-137 produced in human embryonic kidney cells (human) (UniProt P49763); assay: as above
[21] = molecular target: CHO human PlGF-1 fragment (comprising amino acids 17-131; ATCC PTA-8540) (human) (UniProt P49763); assay: … sandwich, capture MAb04, detection pAb264; antigen 250 pg/mL
[22] = molecular target: recombinant human PlGF-1 (comprising amino acids 1-131) expressed in E. coli (R&D Systems) (human) (UniProt P49763); assay: as above
[23] = molecular target: CHO human PlGF-1 comprising amino acids 1-137 (human PlGF-1-His (1-131), CHO 6305) (human) (UniProt P49763); assay: as above
[24] = molecular target: human PlGF-1 fragment (comprising amino acids 17-131) produced in human embryonic kidney cells (human) (UniProt P49763); assay: as above
[25] = molecular target: human PlGF-1 comprising amino acids 1-137 produced in human embryonic kidney cells (human) (UniProt P49763); assay: as above
[26] = molecular target: CHO human PlGF-1 fragment (comprising amino acids 17-131; ATCC PTA-8540) (human) (UniProt P49763); assay: … sandwich, capture MAb04, detection pAb264; antigen 750 pg/mL
[27] = molecular target: recombinant human PlGF-1 (comprising amino acids 1-131) expressed in E. coli (R&D Systems) (human) (UniProt P49763); assay: as above
[28] = molecular target: CHO human PlGF-1 comprising amino acids 1-137 (human PlGF-1-His (1-131), CHO 6305) (human) (UniProt P49763); assay: as above
[29] = molecular target: human PlGF-1 fragment (comprising amino acids 17-131) produced in human embryonic kidney cells (human) (UniProt P49763); assay: as above
[30] = molecular target: human PlGF-1 comprising amino acids 1-137 produced in human embryonic kidney cells (human) (UniProt P49763); assay: as above

Sequence of human PlGF-1 comprising amino acids 1-137 produced in human embryonic kidney cells (human) (P49763 other isoform, or with tags, fused parts or gaps): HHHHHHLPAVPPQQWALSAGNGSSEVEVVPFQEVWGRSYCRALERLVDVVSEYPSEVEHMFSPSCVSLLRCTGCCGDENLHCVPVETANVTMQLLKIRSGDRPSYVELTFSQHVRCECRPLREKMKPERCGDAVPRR
Sequence of CHO human PlGF-1 comprising amino acids 1-137 (human PlGF-1-His (1-131), CHO 6305) (human) (P49763 other isoform, or with tags, fused parts or gaps): as above
Sequence of human PlGF-1 fragment (comprising amino acids 17-131) produced in human embryonic kidney cells (human) (P49763 other isoform, or with tags, fused parts or gaps limits assumed): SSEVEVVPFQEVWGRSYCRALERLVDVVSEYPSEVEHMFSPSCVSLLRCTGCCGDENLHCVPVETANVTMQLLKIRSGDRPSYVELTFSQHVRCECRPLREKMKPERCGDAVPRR
Sequence of CHO human PlGF-1 fragment (comprising amino acids 17-131; ATCC PTA-8540) (human) (P49763 other isoform, or with tags, fused parts or gaps limits assumed): as above

“rat monoclonal antibody 04 (Rat anti-Human PlGF clone number 358932, R&D Systems)” was tested, and the RLU [1] was 1.3e+06 RLU, the RLU [2] was 2.19e+06 RLU and the RLU [3] was 1.13e+06 RLU. For the same substance, the RLU [4] was 1.64e+06 RLU, the RLU [5] was 2.05e+06 RLU and the RLU [6] was 89500 RLU. It also gave an RLU [7] of 169000 RLU, an RLU [8] of 80100 RLU and an RLU [9] of 112000 RLU. It also gave an RLU [10] of 159000 RLU, an RLU [11] of 18900 RLU and an RLU [12] of 19000 RLU. The RLU [13] was 19100 RLU, the RLU [14] was 18700 RLU and the RLU [15] was 18800 RLU. The RLU [16] was 34200 RLU, the RLU [17] was 51900 RLU and the RLU [18] was 32100 RLU. The RLU [19] was 39500 RLU, the RLU [20] was 49700 RLU and the RLU [21] was 293000 RLU. It also gave an RLU [22] of 570000 RLU, an RLU [23] of 246000 RLU and an RLU [24] of 382000 RLU. For the same substance, the RLU [25] was 539000 RLU, the RLU [26] was 752000 RLU and the RLU [27] was 1.36e+06 RLU. For the same substance, the RLU [28] was 644000 RLU, the RLU [29] was 957000 RLU and the RLU [30] was 1.26e+06 RLU.
